Patent US20110200608A1 (UNIVERSITY OF PITTSBURGH OF THE COMMONWEALTH SYSTEM OF …, published 2011)
Bridges are numbered along the chain shown (N, C = ends). Where no end group is shown, it is not given here.

Legend:
[1] = target: T1, HMW-MAA-specific human scFv C21 (biotinylated (NHS-LC-biotin) in the competition and panning assays); assay: SPR (Biacore 3000, 25 C), peptide over amine-coupled scFv C21, 1:1 Langmuir fit
[2] = target: T1, HMW-MAA-specific human scFv C21; assay: SPR (Biacore 3000, 25 C), peptide over amine-coupled scFv C21, koff/kon
[3] = target: T1, HMW-MAA-specific human scFv C21; assay: calculated from a molecular docking model (…); not measured
[4] = target: T1, HMW-MAA-specific human scFv C21; assay: inhibition cell ELISA: peptide incubated 2 h at 4 °C with PP scFv C21 (1:1600) and biotinylated mAb 9E10, then added to Colo38 cells, SA-HRP; blocked ligand: HMW-MAA on Colo38 cells

T1 sequence (chain, as listed by the source): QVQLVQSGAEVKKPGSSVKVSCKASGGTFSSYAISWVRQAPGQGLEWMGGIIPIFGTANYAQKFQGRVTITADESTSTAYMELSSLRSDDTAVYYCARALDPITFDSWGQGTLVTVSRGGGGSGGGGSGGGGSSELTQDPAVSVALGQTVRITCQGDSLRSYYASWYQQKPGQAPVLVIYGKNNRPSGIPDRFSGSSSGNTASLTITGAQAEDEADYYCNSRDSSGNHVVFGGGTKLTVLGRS

koff [1] [s⁻¹]	kon [1] [M⁻¹ s⁻¹]	Kd [2] [µM]	Total Energy (calculated binding energy) [3] [kcal/mol]	IC50 (read off the curve) [4] [µM]	Binder
0.00307	917	3.34	-16.4	–	RPYRYDPLGSLKSRH [peptide P3S10 (RPYRYDPLGSLKSRH)]
0.0655	2170	30.2	-7.3	~1	RPYRYDPLGDLKSRH [peptide P3C21 (RPYRYDPLGDLKSRH), linear]
0.0097	1180	8.24	-93.8	~3	SPSWYCPDCDKRPLV (disulfide 6-9 (inferred), Synthetic peptide) [peptide P1C21 (SPSWYCPDCDKRPLV), cyclized]
